Measurements: patent US9365599B2, “N3S1 chelator-folate derivatives, preparation method thereof and composition for diagnosis or treatment of cancer containing the same as an active ingredient” (KOREA ATOMIC ENERGY RESEARCH INSTITUTE, priority 2012, dated 2016)

Key:
[1] = tested on: FR-positive KB tumor cells; assay: Time-dependent cell uptake (membrane bound and internalized fraction) in FR-positive KB cells; format: cell-based, human; conditions: 37° C., 10-180 min
Procedure: FR-positive KB tumor cells (human oral epidermoid carcinoma) which overexpress FR were grown in T-flask until 80%-90% confluence at 37° C. and 5% CO2 with folid-acid free (deficient) RPMI 1640 medium (FFRPMI) containing 10% heat-inactivated fetal bovine serum (FBS). […] Cells were rinsed twice with ice-cold PBS and pre-incubated with 850 μl of fresh FFRPMI without FBS at 37° C. for 30 min. […] After incubation, the well plates were washed twice with ice-cold PBS.
After that, the cells were washed with an acid wash buffer (50 mM glysine-HCL buffer, pH 2.4), to remove membrane bound radioligand, and the supernatant was collected to measure the membrane bound fraction of radioactivity. Cells were lysed with 1N NaOH, transferred and measured the internalised fraction of radioactivity with γ-counter. Counted radioactivity in membrane bound fraction and internalized fraction could be ascribed to the sum of cell uptake. The cell uptake data was expressed as % cell uptake (cell uptake/total added activity). Each data represents a result of the […] of triplicate wells. The affinity of PKCK-fol was determined using competitive binding assay. ^99mTc-PKC-fol was used as radioligand in this assay. Cells were harvested with typsin and washed with PBS buffer, and 8×10^5 cells were seeded in 12-well plates. […] After that, the cells were collected to measure the radioactivity with γ-counter. […]

in vivo = assay: in vivo; parameters: species or system mice; conditions: female, nude, mouse, iv, 370 kBq, total radioactivity
Procedure: (§1) The stock solution of the ^99mTc-labeled PKCK-fol-OH used in the animal studies was prepared for 10^−8 mol/ml with an activity of 370 MBq. Solutions for injection were prepared by the dilution of the stock solution to obtain a desired volumetric activity of 3.7 MBq/ml. The biodistribution experiments for the ^99mTc-labeled PKCK-fol-OH were performed with KB-bearing female nude mice (provided by OrientBio, Republic of Korea). […] After tumor was allowed to grow for 2-3 weeks, the mice were administered 370 kBq (10 uCi)/100 μl intravenously. At 30 min, 1 hr, 3 hr and 24 hr, the animals were sacrificed.
(§2) Table 1 below lists biodistribution results measured at 30 min, 1 hr, 3 hr and 24 hr after injection.

KB tumor xenograft = assay: in vivo; parameters: species or system mice; conditions: mouse, iv
Procedure: as §1, §2

folate-receptor (FR) = molecular target: T1, folate-receptor (FR) (Homo sapiens, UniProt P15328); assay: Competitive binding assay on FR-positive KB cells with 99mTc-labeled folate radioligand
T1 construct: FR-positive KB tumor cells (human oral epidermoid carcinoma) which overexpress FR; endogenous in cells; host or cells: KB cells (human oral epidermoid carcinoma)
T1 sequence (P15328 25-234): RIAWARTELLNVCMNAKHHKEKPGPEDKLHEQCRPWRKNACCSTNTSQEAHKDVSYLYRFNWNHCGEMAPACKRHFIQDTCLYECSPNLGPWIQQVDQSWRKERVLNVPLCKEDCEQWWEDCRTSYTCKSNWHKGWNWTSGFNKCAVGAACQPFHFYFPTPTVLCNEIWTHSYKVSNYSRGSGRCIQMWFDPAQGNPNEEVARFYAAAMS
Procedure: After that, the cells were washed with an acid wash buffer (50 mM glysine-HCL buffer, pH 2.4), to remove membrane bound radioligand, and the supernatant was collected to measure the membrane bound fraction of radioactivity. Cells were lysed with 1N NaOH, transferred and measured the internalised fraction of radioactivity with γ-counter. Counted radioactivity in membrane bound fraction and internalized fraction could be ascribed to the sum of cell uptake. The cell uptake data was expressed as % cell uptake (cell uptake/total added activity). […] Cells were harvested with typsin and washed with PBS buffer, and 8×10^5 cells were seeded in 12-well plates. […] After that, the cells were collected to measure the radioactivity with γ-counter.

Q: For `NCCCC[C@H](NC(=O)[C@@H]1CCCN1)C(=O)N[C@@H](CS)C(=O)NCCCC[C@H](NC(=O)CC[C@H](NC(=O)c1ccc(NCc2cnc3nc(N)[nH]c(=O)c3n2)cc1)C(=O)O)C(=O)O` (99mTc complex, metal not drawn) [Example 10], which “cell affinity and internalization rate” value [1] is on record?
A: Its value is “increased time dependently”.

Q: And the tissue uptake at 0.5 h (in vivo; Blood uptake)?
A: The tissue uptake at 0.5 h was 0.64 ± 0.26 %ID/g.

Q: And the tissue uptake at 1 h (in vivo; Blood uptake)?
A: Its tissue uptake at 1 h is 0.36 ± 0.06 %ID/g.

Q: What about the tissue uptake at 3 h (in vivo; Blood uptake) of the same compound?
A: Its tissue uptake at 3 h is 0.18 ± 0.05 %ID/g.

Q: What about the tissue uptake at 24 h (in vivo; Blood uptake) of the same compound?
A: Its tissue uptake at 24 h is 0.06 ± 0.02 %ID/g.

Q: What about the tissue uptake at 0.5 h (in vivo; Heart uptake) of the same compound?
A: The tissue uptake at 0.5 h was 2.25 ± 0.47 %ID/g.

Q: And the tissue uptake at 1 h (in vivo; Heart uptake)?
A: Its tissue uptake at 1 h is 1.73 ± 0.27 %ID/g.

Q: And the tissue uptake at 3 h (in vivo; Heart uptake)?
A: The tissue uptake at 3 h was 1.03 ± 0.32 %ID/g.

Q: And the tissue uptake at 24 h (in vivo; Heart uptake)?
A: Its tissue uptake at 24 h is 0.1 ± 0.06 %ID/g.

Q: And the tissue uptake at 0.5 h (in vivo; Kidney uptake)?
A: Its tissue uptake at 0.5 h is 76.5 ± 5.04 %ID/g.

Q: And the tissue uptake at 1 h (in vivo; Kidney uptake)?
A: The tissue uptake at 1 h was 77.2 ± 5.43 %ID/g.

Q: What about the tissue uptake at 3 h (in vivo; Kidney uptake) of the same compound?
A: Its tissue uptake at 3 h is 41.5 ± 12.1 %ID/g.

Q: What about the tissue uptake at 24 h (in vivo; Kidney uptake) of the same compound?
A: The tissue uptake at 24 h was 7.49 ± 1.9 %ID/g.

Q: What about the tissue uptake at 0.5 h (in vivo; Lg Int uptake) of the same compound?
A: The tissue uptake at 0.5 h was 2.43 ± 1.38 %ID/g.

Q: And the tissue uptake at 1 h (in vivo; Lg Int uptake)?
A: The tissue uptake at 1 h was 3.43 ± 0.73 %ID/g.

Q: And the tissue uptake at 3 h (in vivo; Lg Int uptake)?
A: The tissue uptake at 3 h was 1.48 ± 0.64 %ID/g.

Q: What about the tissue uptake at 24 h (in vivo; Lg Int uptake) of the same compound?
A: Its tissue uptake at 24 h is 1.38 ± 0.86 %ID/g.

Q: What about the tissue uptake at 0.5 h (in vivo; Liver uptake) of the same compound?
A: The tissue uptake at 0.5 h was 7.21 ± 1.58 %ID/g.

Q: What about the tissue uptake at 1 h (in vivo; Liver uptake) of the same compound?
A: The tissue uptake at 1 h was 5.42 ± 1.85 %ID/g.

Q: What about the tissue uptake at 3 h (in vivo; Liver uptake) of the same compound?
A: Its tissue uptake at 3 h is 2.83 ± 0.6 %ID/g.

Q: What about the tissue uptake at 24 h (in vivo; Liver uptake) of the same compound?
A: Its tissue uptake at 24 h is 1.09 ± 0.07 %ID/g.

Q: And the tissue uptake at 0.5 h (in vivo; Lung uptake)?
A: Its tissue uptake at 0.5 h is 1.7 ± 0.35 %ID/g.

Q: What about the tissue uptake at 1 h (in vivo; Lung uptake) of the same compound?
A: Its tissue uptake at 1 h is 1.45 ± 0.33 %ID/g.

Q: What about the tissue uptake at 3 h (in vivo; Lung uptake) of the same compound?
A: Its tissue uptake at 3 h is 0.63 ± 0.26 %ID/g.

Q: And the tissue uptake at 24 h (in vivo; Lung uptake)?
A: The tissue uptake at 24 h was 0.12 ± 0.06 %ID/g.

Q: What about the tissue uptake at 0.5 h (in vivo; Sm Int uptake) of the same compound?
A: The tissue uptake at 0.5 h was 0.93 ± 0.54 %ID/g.

Q: What about the tissue uptake at 1 h (in vivo; Sm Int uptake) of the same compound?
A: Its tissue uptake at 1 h is 0.43 ± 0.05 %ID/g.

Q: And the tissue uptake at 3 h (in vivo; Sm Int uptake)?
A: Its tissue uptake at 3 h is 0.27 ± 0.12 %ID/g.

Q: And the tissue uptake at 24 h (in vivo; Sm Int uptake)?
A: The tissue uptake at 24 h was 0.1 ± 0.05 %ID/g.

Q: What about the tissue uptake at 0.5 h (in vivo; Spleen uptake) of the same compound?
A: The tissue uptake at 0.5 h was 0.47 ± 0.13 %ID/g.

Q: What about the tissue uptake at 1 h (in vivo; Spleen uptake) of the same compound?
A: The tissue uptake at 1 h was 0.36 ± 0.03 %ID/g.

Q: And the tissue uptake at 3 h (in vivo; Spleen uptake)?
A: Its tissue uptake at 3 h is 0.3 ± 0.07 %ID/g.

Q: And the tissue uptake at 24 h (in vivo; Spleen uptake)?
A: Its tissue uptake at 24 h is 0.1 ± 0.03 %ID/g.

Q: And the tissue uptake at 0.5 h (in vivo; Stomach uptake)?
A: Its tissue uptake at 0.5 h is 1.92 ± 0.26 %ID/g.

Q: What about the tissue uptake at 1 h (in vivo; Stomach uptake) of the same compound?
A: Its tissue uptake at 1 h is 1.2 ± 0.05 %ID/g.

Q: What about the tissue uptake at 3 h (in vivo; Stomach uptake) of the same compound?
A: The tissue uptake at 3 h was 0.55 ± 0.16 %ID/g.

Q: What about the tissue uptake at 24 h (in vivo; Stomach uptake) of the same compound?
A: Its tissue uptake at 24 h is 0.13 ± 0.04 %ID/g.

Q: And the tissue uptake at 0.5 h (in vivo; Tumor uptake)?
A: The tissue uptake at 0.5 h was 2.6 ± 0.53 %ID/g.

Q: What about the tissue uptake at 1 h (in vivo; Tumor uptake) of the same compound?
A: The tissue uptake at 1 h was 2.96 ± 0.51 %ID/g.

Q: What about the tissue uptake at 3 h (in vivo; Tumor uptake) of the same compound?
A: The tissue uptake at 3 h was 2.24 ± 0.27 %ID/g.

Q: What about the tissue uptake at 24 h (in vivo; Tumor uptake) of the same compound?
A: Its tissue uptake at 24 h is 0.91 ± 0.28 %ID/g.

Q: What about the tissue to tissue ratio at 0.5 h (in vivo; Tumor/blood ratio) of the same compound?
A: Its tissue to tissue ratio at 0.5 h is 4.38 ± 0.92.

Q: What about the tissue to tissue ratio at 1 h (in vivo; Tumor/blood ratio) of the same compound?
A: Its tissue to tissue ratio at 1 h is 8.35 ± 1.12.

Q: What about the tissue to tissue ratio at 3 h (in vivo; Tumor/blood ratio) of the same compound?
A: The tissue to tissue ratio at 3 h was 13.2 ± 2.78.

Q: And the tissue to tissue ratio at 24 h (in vivo; Tumor/blood ratio)?
A: Its tissue to tissue ratio at 24 h is 15.2 ± 4.36.

Q: What about the tissue to tissue ratio at 0.5 h (in vivo; Tumor/kidney ratio) of the same compound?
A: The tissue to tissue ratio at 0.5 h was 0.03 ± 0.01.

Q: And the tissue to tissue ratio at 1 h (in vivo; Tumor/kidney ratio)?
A: Its tissue to tissue ratio at 1 h is 0.04 ± 0.01.

Q: What about the tissue to tissue ratio at 3 h (in vivo; Tumor/kidney ratio) of the same compound?
A: The tissue to tissue ratio at 3 h was 0.06 ± 0.01.

Q: What about the tissue to tissue ratio at 24 h (in vivo; Tumor/kidney ratio) of the same compound?
A: The tissue to tissue ratio at 24 h was 0.12 ± 0.02.

Q: What about the tissue to tissue ratio at 0.5 h (in vivo; Tumor/liver ratio) of the same compound?
A: The tissue to tissue ratio at 0.5 h was 0.38 ± 0.14.

Q: And the tissue to tissue ratio at 1 h (in vivo; Tumor/liver ratio)?
A: Its tissue to tissue ratio at 1 h is 0.58 ± 0.17.

Q: And the tissue to tissue ratio at 3 h (in vivo; Tumor/liver ratio)?
A: Its tissue to tissue ratio at 3 h is 0.82 ± 0.2.

Q: What about the tissue to tissue ratio at 24 h (in vivo; Tumor/liver ratio) of the same compound?
A: Its tissue to tissue ratio at 24 h is 0.83 ± 0.24.

Q: What about the “uptake in other organs (lung, heart, stomach and intestines)” value (KB tumor xenograft) of the same compound?
A: Its value is “kept at a low level”.

Q: Which IC50 (folate-receptor (FR)) does the source give for `NCCCCC(NC(=O)C1CCCN1)C(=O)NC(CS)C(=O)NCCCCC(NC(=O)CCC(NC(=O)c1ccc(NCC2=NC3C(=O)NC(N)=NC3N=C2)cc1)C(=O)O)C(=O)O` (stereo not shown) [Example 1, PKCK-Fol-OH] here?
A: The IC50 was 160 nM.
